Measurements taken from US20220324959A1 (Janssen / Centocor, published 2022).

Columns and labels:
[1] = molecular target: T1, recombinant human TNFα (human, UniProt P01375 77-233, 125I label in the receptor blocking assay); assay: cell-based or functional assay
[2] = molecular target: T1, recombinant human TNFα; assay: inhibition of 125I-TNFα binding to plate-coated p55-sf2, hybridoma supernatant
Method: (§1) 50:1 of p55-sf2 at 0.5:g/ml in PBS was added to Optiplates to coat the wells during a one-hour incubation at 37° C. Serial dilutions of the eight TNV cell supernatants were prepared in 96-well round-bottom plates using PBS/0.1% BSA as diluent. […] The mixture was preincubated for one hour at RT. The coated Optiplates were washed to remove unbound p55-sf2 and 50:1 of the ¹²⁵I-TNFα/cell supernatant mixture was transferred to the Optiplates. After 2 hrs at RT, Optiplates were washed three times with PBS-Tween. […] of Microscint-20 was added and the cpm bound determined using the TopCount gamma counter.
A simple binding assay was done to determine whether the eight TNV mAbs contained in hybridoma cell supernatant were capable of blocking TNFα binding to receptor. The concentrations of the TNV mAbs in their respective cell supernatants were first determined by standard ELISA analysis for human IgG.

[3] = molecular target: T1, recombinant human TNFα; assay: competition radioligand assay: mAb in hybridoma supernatant preincubated with 5 ng/ml 125I-TNFα, then binding of 125I-TNFα to plate-coated p55-sf2 (TNF receptor/IgG fusion) counted as cpm bound
Method: Varying amounts of hybridoma cell supernatants containing known amounts of TNV mAb were preincubated with a fixed concentration (5 ng/ml) of ¹²⁵I-labeled TNFα. […] The amount of TNFα that bound to the p55 receptor in the presence of the mAbs was determined after washing away the unbound material and counting using a gamma counter. Although eight TNV mAb samples were tested in these experiments, for simplicity three of the mAbs that were shown by DNA sequence analyses to be identical to one of the other TNV mAbs (see Section 5.2.2) are not shown here. Each sample was tested in duplicate. The results shown are representative of two independent experiments.
as §1

B1: TNV148 (antibody, human IgG1, kappa, V domains shown)
VH: QVQLVESGGGVVQPGRSLRLSCAASGFIFSSYAMHWVRQAPGNGLEWVAFMSYDGSNKKYADSVKGRFTISRDNPKNTLYLQMNSLRAEDTAVYYCARDRGIAAGGNYYYYGMDVWGQGTTVTVSS
VL: EIVLTQSPATLSLSPGERATLSCRASQSVYSYLAWYQQKPGQAPRLLIYDASNRATGIPARFSGSGSGTDFTLTISSLEPEDFAVYYCQQRSNWPPFTFGPGTKVDIKR
notes: Hybridoma-derived fully human IgG1 kappa, tested as hybridoma supernatant; also called GenTNV148.26.12; C420A
B1 was tested, and the “neutralizing TNFα bioactivity” value [1] was 4 fold, the “fold better at blocking TNF binding (against TNV118 and TNV14)” value [2] was about 4 fold and the “IC50 (read off the curve)” value [3] was about 4 ng/mL.

B2: TNV86 (antibody, human IgG1, kappa, V domains shown)
VH: B1 VH
VL: B1 VL
notes: Hybridoma-derived fully human IgG1 kappa, tested as hybridoma supernatant; Identity is stated for the variable regions only; also called GenTNV86.14.34; C417A
With B2 the “fold better at blocking TNF binding (against TNV118 and TNV14)” value [2] was about 4 fold.
